Laboratory results taken from patent US20210254073A1.

How the values were obtained:
[1] = biological target: human Heat Shock Factor 1 (HSF1) tagged with GFP (Homo sapiens; Aequorea victoria) (UniProt Q00613); test: AptA-MS: GFP-aptamer pull-down of HSF1-GFP from HCT116 lysate, mass spectrometry, SAINT probability score of interaction
[2] = biological target: human Heat Shock Factor 1 (HSF1) tagged with GFP (Homo sapiens; Aequorea victoria) (UniProt Q00613); test: AptA-MS of HSF1-GFP from heat-shocked HCT116 cells, SAINT probability score of interaction
[3] = biological target: human Heat Shock Factor 1 (HSF1) tagged with GFP (Homo sapiens; Aequorea victoria) (UniProt Q00613); test: AptA-MS of HSF1-GFP from non-heat-shocked HCT116 cells, SAINT probability score of interaction

UniProt Q00613, sequence (Q00613 whole entry): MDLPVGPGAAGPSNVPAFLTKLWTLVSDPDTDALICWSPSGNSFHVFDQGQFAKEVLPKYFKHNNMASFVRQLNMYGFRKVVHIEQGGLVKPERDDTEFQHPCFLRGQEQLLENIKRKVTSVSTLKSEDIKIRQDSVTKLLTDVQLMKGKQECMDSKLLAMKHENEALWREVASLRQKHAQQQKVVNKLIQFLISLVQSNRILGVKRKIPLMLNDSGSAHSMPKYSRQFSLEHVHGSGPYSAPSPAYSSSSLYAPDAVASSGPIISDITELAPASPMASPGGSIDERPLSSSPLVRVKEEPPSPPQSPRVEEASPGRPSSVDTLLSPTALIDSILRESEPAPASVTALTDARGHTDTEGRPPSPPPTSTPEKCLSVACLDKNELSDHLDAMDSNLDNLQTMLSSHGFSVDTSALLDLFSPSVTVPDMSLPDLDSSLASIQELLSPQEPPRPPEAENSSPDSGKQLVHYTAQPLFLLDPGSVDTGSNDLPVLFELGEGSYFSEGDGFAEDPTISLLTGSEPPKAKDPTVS

SAINT score [1]	SAINT score [2]	Substance	other results
0.66		Elongation Factor 1-alpha 2 (from UniProt Q05639 2-463)	
	0.92	translation elongation factor HBS1 (from UniProt Q9Y450 1-684)	
	0.98	Thymidylate Kinase (from UniProt P23919 2-212) (enzyme)	
0.69		Elongation Factor 1-alpha 1 (from UniProt P68104 2-462)	
		HSF2 (from UniProt Q03933 1-536)	SAINT score [3]: 0.78
